{"source": "paper PMC9561264", "key": {"[1]": {"molecular_target": "T1, hOGG1 wild type;c-Myc;Max (human;human?;human?) (UniProt O15527+P01106)", "T1 sequence (P01106 whole entry, looked up, chain 1 of 2)": "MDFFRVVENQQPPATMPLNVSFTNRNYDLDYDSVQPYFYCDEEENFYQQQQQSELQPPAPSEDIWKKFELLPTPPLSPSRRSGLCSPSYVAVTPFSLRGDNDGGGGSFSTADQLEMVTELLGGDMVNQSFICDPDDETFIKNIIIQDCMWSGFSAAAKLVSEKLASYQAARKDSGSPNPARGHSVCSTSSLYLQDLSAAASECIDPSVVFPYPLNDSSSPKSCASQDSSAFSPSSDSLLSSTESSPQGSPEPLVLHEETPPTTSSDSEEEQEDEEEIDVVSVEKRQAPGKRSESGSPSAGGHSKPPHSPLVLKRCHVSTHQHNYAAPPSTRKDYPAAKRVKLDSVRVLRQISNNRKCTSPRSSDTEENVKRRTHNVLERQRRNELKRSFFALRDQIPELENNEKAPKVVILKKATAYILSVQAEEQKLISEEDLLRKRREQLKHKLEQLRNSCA", "T1 sequence (O15527 whole entry, looked up, chain 2 of 2)": "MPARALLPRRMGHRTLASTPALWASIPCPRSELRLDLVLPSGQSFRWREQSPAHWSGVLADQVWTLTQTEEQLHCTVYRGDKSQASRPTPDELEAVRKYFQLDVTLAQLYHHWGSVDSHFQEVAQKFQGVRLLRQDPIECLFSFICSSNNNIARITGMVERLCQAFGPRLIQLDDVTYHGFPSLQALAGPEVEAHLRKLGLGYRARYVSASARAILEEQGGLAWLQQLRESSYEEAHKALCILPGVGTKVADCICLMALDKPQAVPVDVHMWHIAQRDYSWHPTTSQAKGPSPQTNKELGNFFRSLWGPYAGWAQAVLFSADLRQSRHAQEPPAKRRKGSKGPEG", "assay": "AFM (QD-Myc)", "settings": "FP at 25°C with 5 nM labelled DNA, EMSA room temp 30 min, 15% native PAGE 0.5x TBE 4°C, interaction buffer 20 mM Tris-HCl pH 7.6, 200 mM NaCl (Fig. S12) …"}, "[2]": {"molecular_target": "hOGG1 K249Q;c-Myc K249Q (human;human?) (UniProt O15527+P01106)", "sequence (O15527 whole entry K249Q, chain 1 of 2)": "as the sequence (O15527 whole entry, looked up, chain 2 of 2) above, with K249Q counted along it", "sequence (P01106 16-454, chain 2 of 2)": "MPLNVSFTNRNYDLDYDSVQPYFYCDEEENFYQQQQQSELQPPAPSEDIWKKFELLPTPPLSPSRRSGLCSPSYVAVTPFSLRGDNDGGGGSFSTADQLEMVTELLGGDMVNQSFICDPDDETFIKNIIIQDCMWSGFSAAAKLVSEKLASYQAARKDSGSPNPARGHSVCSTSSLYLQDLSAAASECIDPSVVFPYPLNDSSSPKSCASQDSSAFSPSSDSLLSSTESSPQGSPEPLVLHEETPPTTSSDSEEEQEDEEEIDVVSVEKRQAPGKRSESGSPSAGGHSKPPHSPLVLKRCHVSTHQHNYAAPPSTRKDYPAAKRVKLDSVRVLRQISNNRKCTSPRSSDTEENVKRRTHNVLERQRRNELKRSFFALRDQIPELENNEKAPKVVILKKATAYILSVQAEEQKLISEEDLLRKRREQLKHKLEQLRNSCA", "assay": "AFM", "settings": "8-oxoguanine at ~50% (49.8%) of length, FP at 25°C with 5 nM labelled DNA, EMSA room temp 30 min, 15% native PAGE 0.5x TBE 4°C"}, "[3]": {"molecular_target": "T1, hOGG1 wild type;c-Myc;Max (human;human?;human?)", "assay": "AFM", "settings": "8-oxoguanine at ~50% (49.8%) of length, FP at 25°C with 5 nM labelled DNA, EMSA room temp 30 min, 15% native PAGE 0.5x TBE 4°C"}, "[4]": {"molecular_target": "hOGG1 C28A;c-Myc C28A (human;human?) (UniProt O15527+P01106)", "sequence (O15527 whole entry C28A, chain 1 of 2)": "as the sequence (O15527 whole entry, looked up, chain 2 of 2) above, with C28A counted along it", "sequence (P01106 16-454, chain 2 of 2)": "as the sequence (P01106 16-454, chain 2 of 2) above", "assay": "AFM", "settings": "8-oxoguanine at ~50% (49.8%) of length; FP at 25°C with 5 nM labelled DNA; EMSA room temp 30 min, 15% native PAGE 0.5x TBE 4°C; interaction buffer 20 mM Tris-HCl pH 7.6, 200 mM NaCl (Fig. S12) …"}, "[5]": {"molecular_target": "T2, hOGG1 wild type;c-Myc (human;human?) (UniProt O15527+P01106)", "T2 sequence (O15527 whole entry, chain 1 of 2)": "as the sequence (O15527 whole entry, looked up, chain 2 of 2) above", "T2 sequence (P01106 16-454, chain 2 of 2)": "as the sequence (P01106 16-454, chain 2 of 2) above", "assay": "AFM", "settings": "30 nM Myc, 8-oxoguanine at ~50% (49.8%) of length, FP at 25°C with 5 nM labelled DNA, EMSA room temp 30 min, 15% native PAGE 0.5x TBE 4°C, interaction buffer 20 mM Tris-HCl pH 7.6, 200 mM NaCl (Fig. S12) …"}, "[6]": {"molecular_target": "hOGG1 K249Q K249Q (human) (UniProt O15527)", "sequence (O15527 whole entry K249Q)": "as the sequence (O15527 whole entry, looked up, chain 2 of 2) above, with K249Q counted along it", "assay": "AFM", "settings": "8-oxoguanine at ~50% (49.8%) of length, FP at 25°C with 5 nM labelled DNA, EMSA room temp 30 min, 15% native PAGE 0.5x TBE 4°C"}, "[7]": {"molecular_target": "hOGG1 C28A C28A (human) (UniProt O15527)", "sequence (O15527 whole entry C28A)": "as the sequence (O15527 whole entry, looked up, chain 2 of 2) above, with C28A counted along it", "assay": "AFM", "settings": "oxidising; specificity 779 ± 471; 8-oxoguanine at ~50% (49.8%) of length; FP at 25°C with 5 nM labelled DNA; EMSA room temp 30 min, 15% native PAGE 0.5x TBE 4°C; interaction buffer 20 mM Tris-HCl pH 7.6, 200 mM NaCl (Fig. S12); reduci"}, "[8]": {"molecular_target": "T2, hOGG1 wild type;c-Myc (human;human?)", "assay": "AFM (QD-Myc)", "settings": "8-oxoguanine 8 bp upstream of E-box, ~50% of length; FP at 25°C with 5 nM labelled DNA; EMSA room temp 30 min, 15% native PAGE 0.5x TBE 4°C; interaction buffer 20 mM Tris-HCl pH 7.6, 200 mM NaCl (Fig. S12) …"}, "[9]": {"molecular_target": "hOGG1 K249Q;c-Myc;Max K249Q (human;human?;human?) (UniProt O15527+P01106)", "sequence (P01106 whole entry, looked up, chain 1 of 2)": "as the sequence (P01106 whole entry, looked up, chain 1 of 2) above", "sequence (O15527 whole entry, looked up, stated change not applied, chain 2 of 2)": "as the sequence (O15527 whole entry, looked up, chain 2 of 2) above", "assay": "AFM (QD-Myc)", "settings": "8-oxoguanine 8 bp upstream of E-box, ~50% of length; FP at 25°C with 5 nM labelled DNA; EMSA room temp 30 min, 15% native PAGE 0.5x TBE 4°C; interaction buffer 20 mM Tris-HCl pH 7.6, 200 mM NaCl (Fig. S12) …"}, "[10]": {"molecular_target": "hOGG1 C28A;c-Myc;Max C28A (human;human?;human?) (UniProt O15527+P01106)", "sequence (P01106 whole entry, looked up, chain 1 of 2)": "as the sequence (P01106 whole entry, looked up, chain 1 of 2) above", "sequence (O15527 whole entry, looked up, stated change not applied, chain 2 of 2)": "as the sequence (O15527 whole entry, looked up, chain 2 of 2) above", "assay": "AFM (QD-Myc)", "settings": "8-oxoguanine 8 bp upstream of E-box, ~50% of length; FP at 25°C with 5 nM labelled DNA; EMSA room temp 30 min, 15% native PAGE 0.5x TBE 4°C; interaction buffer 20 mM Tris-HCl pH 7.6, 200 mM NaCl (Fig. S12) …"}, "[11]": {"molecular_target": "c-Myc;Max (UniProt P01106)", "sequence (P01106 whole entry, looked up)": "as the sequence (P01106 whole entry, looked up, chain 1 of 2) above", "assay": "AFM (QD-Myc)", "settings": "8-oxoguanine 8 bp upstream of E-box, ~50% of length; FP at 25°C with 5 nM labelled DNA; EMSA room temp 30 min, 15% native PAGE 0.5x TBE 4°C; interaction buffer 20 mM Tris-HCl pH 7.6, 200 mM NaCl (Fig. S12) …"}}, "note": "Values joined by “and” are separate entries in the source; they are usually repeats but may differ in a detail not shown here. Identical values can stand only once.", "data": [{"substance": "E-box AFM substrate", "values": [{"measurement": "binding signal", "setting": "[1]", "value": 0.11, "unit": "Myc/DNA"}]}, {"substance": "oxoG 505 bp AFM substrate", "values": [{"measurement": "binding signal", "setting": "[1]; 8-oxoguanine at ~50% (49.8%) of length", "value": "0.15 Myc/DNA and 0.06 Myc/DNA"}, {"measurement": "binding signal (counts/DNA at oxoG)", "setting": "[2]; oxidising, specificity 438 ± 217, interaction buffer 20 mM Tris-HCl pH 7.6, 200 mM NaCl (Fig. S12), reduci", "value": 0.1}, {"measurement": "binding signal (counts/DNA at oxoG)", "setting": "[2]; reducing, specificity 421 ± 153, interaction buffer 20 mM Tris-HCl pH 7.6, 200 mM NaCl (Fig. S12) …", "value": 0.15}, {"measurement": "binding signal (counts/DNA at oxoG)", "setting": "[3]; oxidising, specificity 421 ± 252, interaction buffer 20 mM Tris-HCl pH 7.6, 200 mM NaCl (Fig. S12), reduci", "value": 0.19}, {"measurement": "binding signal (counts/DNA at oxoG)", "setting": "[3]; reducing, specificity 456 ± 289, interaction buffer 20 mM Tris-HCl pH 7.6, 200 mM NaCl (Fig. S12) …", "value": 0.12}, {"measurement": "binding signal (counts/DNA at oxoG)", "setting": "[4]", "value": 0.14}, {"measurement": "binding signal (counts/DNA at oxoG)", "setting": "[5]; oxidising, specificity 423 ± 155", "value": 0.17}, {"measurement": "binding signal (counts/DNA at oxoG)", "setting": "[5]; reducing, specificity 517 ± 161", "value": 0.17}, {"measurement": "binding signal (counts/DNA at oxoG)", "setting": "[6]; oxidising, specificity 294 ± 139, interaction buffer 20 mM Tris-HCl pH 7.6, 200 mM NaCl (Fig. S12), reduci", "value": 0.09}, {"measurement": "binding signal (counts/DNA at oxoG)", "setting": "[6]; reducing, specificity 468 ± 197, interaction buffer 20 mM Tris-HCl pH 7.6, 200 mM NaCl (Fig. S12) …", "value": 0.18}, {"measurement": "binding signal (counts/DNA at oxoG)", "setting": "[7]", "value": 0.14}]}, {"substance": "oxoG-E-box AFM substrate", "values": [{"measurement": "binding signal", "setting": "[1]; 8-oxoguanine 8 bp upstream of E-box, ~50% of length", "value": "0.29 Myc/DNA and 0.17 Myc/DNA"}, {"measurement": "binding signal", "setting": "[8]", "value": "0.12 Myc/DNA and 0.08 Myc/DNA"}, {"measurement": "binding signal", "setting": "[9]", "value": "0.29 Myc/DNA and 0.17 Myc/DNA"}, {"measurement": "binding signal", "setting": "[10]", "value": 0.16, "unit": "Myc/DNA"}, {"measurement": "binding signal", "setting": "[11]", "value": "0.14 Myc/DNA and 0.12 Myc/DNA"}]}]}
